Data from patent publication US20250092426, “CAS ENDONUCLEASES AND RELATED METHODS” (Flagship Pioneering Innovations VII, LLC, published 2025).

Biological target: T1, CasEnd-18 (synthetic construct)
T1 chain: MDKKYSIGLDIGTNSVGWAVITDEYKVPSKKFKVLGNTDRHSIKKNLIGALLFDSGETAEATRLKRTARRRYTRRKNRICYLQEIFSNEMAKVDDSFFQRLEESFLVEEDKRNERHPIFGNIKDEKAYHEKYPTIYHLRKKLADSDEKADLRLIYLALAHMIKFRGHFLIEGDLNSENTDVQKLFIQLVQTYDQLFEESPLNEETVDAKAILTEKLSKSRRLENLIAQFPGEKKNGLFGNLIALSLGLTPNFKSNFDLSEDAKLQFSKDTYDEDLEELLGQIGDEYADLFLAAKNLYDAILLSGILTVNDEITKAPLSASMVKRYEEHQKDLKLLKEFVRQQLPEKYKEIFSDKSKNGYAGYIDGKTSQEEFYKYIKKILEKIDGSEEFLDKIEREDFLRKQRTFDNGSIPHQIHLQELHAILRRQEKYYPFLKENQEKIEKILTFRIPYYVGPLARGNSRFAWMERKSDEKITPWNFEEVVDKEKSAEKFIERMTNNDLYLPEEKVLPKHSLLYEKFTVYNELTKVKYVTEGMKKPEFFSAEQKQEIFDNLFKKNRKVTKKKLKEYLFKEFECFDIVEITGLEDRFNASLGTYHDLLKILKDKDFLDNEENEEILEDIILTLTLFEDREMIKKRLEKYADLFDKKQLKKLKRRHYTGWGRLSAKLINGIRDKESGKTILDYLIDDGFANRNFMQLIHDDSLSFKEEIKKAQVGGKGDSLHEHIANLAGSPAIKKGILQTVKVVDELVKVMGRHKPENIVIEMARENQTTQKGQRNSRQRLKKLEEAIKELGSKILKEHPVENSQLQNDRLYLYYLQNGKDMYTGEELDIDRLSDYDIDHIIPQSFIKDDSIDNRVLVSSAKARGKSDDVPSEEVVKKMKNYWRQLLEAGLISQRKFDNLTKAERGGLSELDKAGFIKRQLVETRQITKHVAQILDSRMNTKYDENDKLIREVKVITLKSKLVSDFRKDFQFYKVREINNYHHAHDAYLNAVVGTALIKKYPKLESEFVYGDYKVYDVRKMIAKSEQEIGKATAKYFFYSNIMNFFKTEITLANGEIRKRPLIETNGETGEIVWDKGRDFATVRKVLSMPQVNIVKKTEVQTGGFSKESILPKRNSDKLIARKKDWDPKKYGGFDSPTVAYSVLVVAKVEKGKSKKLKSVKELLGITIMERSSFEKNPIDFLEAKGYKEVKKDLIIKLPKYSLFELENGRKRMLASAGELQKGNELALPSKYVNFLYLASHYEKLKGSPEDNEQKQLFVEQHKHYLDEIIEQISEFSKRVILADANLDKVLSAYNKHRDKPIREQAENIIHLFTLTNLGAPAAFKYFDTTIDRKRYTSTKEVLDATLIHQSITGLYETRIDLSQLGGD
Assay: cell_activity; +++; HEK293T; PAM not stated
Method in brief: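 Editing activity was scored as the fraction of GFP+ cells on day 4 by flow cytometry. BFP-expressing HEK293T cells (250,000) received by nucleofection 200 ng plasmid for the RT-Cas fusion protein and 200 ng template RNA plasmid designed to convert BFP to GFP.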

B1: BFP-to-GFP template RNA ; BFP reporter protospacer (ssRNA ; dsDNA)
RNA: GCCGAAGCACUGCACGCCGUGUUUUAGAGCUAGAAAUAGCAAGUUAAAAUAAGGCUAGUCCGUUAUCAACUUGAAAAAGUGGCACCGAGUCGGUGCACCCUGACGUACGGCGUGCAGUGCUU
DNA 1: GCCGAAGCACTGCACGCCGT
DNA 2: ACGGCGTGCAGTGCTTCGGC
  activity: ≥ 100 % of reference
